The record followed here is US20230203190A1.

Several values for one entry are separate records, joined by “and”; a condition that tells them apart may be missing. Equal entries are not always repeated.

Assay [1] concerns the target human colorectal and pancreatic carcinoma-associated antigens (CPAA) (human). In words: flow cytometry, MCF-7 breast tumor cells, control antibody. In general terms: Flow cytometry measures light scatter and fluorescence of single cells or particles in a stream.
Assay [2] has the same target. The experiment in a line: flow cytometry, GEO colorectal tumor cells, control antibody.
Assay [3] shares this target. The experiment in a line: flow cytometry, OVCAR-3 ovarian tumor cells, control antibody.
For assay [4] the target is unchanged. In words: flow cytometry, LS174T colorectal tumor cells, control antibody.
Assay [5] has the same target. The experiment in a line: flow cytometry, CFPAC-1 pancreatic tumor cells, control antibody.
For assay [6] the target is unchanged. In words: flow cytometry, HT-29 colorectal tumor cells, 2 ug NPC-1C per 100,000 cells.
For assay [7] the target is unchanged. In words: flow cytometry, SW480 colorectal tumor cells, 2 ug NPC-1C per 100,000 cells.
The target is the same in assay [8]. The experiment in a line: flow cytometry, SW620 colorectal tumor cells, 2 ug NPC-1C per 100,000 cells.
Assay [9] shares this target. In words: flow cytometry, AsPC-1 pancreatic tumor cells, 2 ug NPC-1C per 100,000 cells.
The target is the same in assay [10]. In words: flow cytometry, LS174T colorectal tumor cells, 2 ug NPC-1C per 100,000 cells.
Assay [11] shares this target. In words: flow cytometry, Panc-1 pancreatic tumor cells, 2 ug NPC-1C per 100,000 cells.
Assay [12] has the same target. The experiment in a line: flow cytometry, SW1116 colorectal tumor cells, 2 ug NPC-1C per 100,000 cells.
The target is the same in assay [13]. In words: flow cytometry, SW1463 colorectal tumor cells, 2 ug NPC-1C per 100,000 cells.
The target is the same in assay [14]. In words: flow cytometry, CFPAC-1 pancreatic tumor cells, 2 ug NPC-1C per 100,000 cells.
For assay [15] the target is unchanged. In words: flow cytometry, Colo-205 colorectal tumor cells, 2 ug NPC-1C per 100,000 cells.
Assay [16] shares this target. The experiment in a line: flow cytometry, H226 squamous tumor cells (type reported as not bound), 2 ug NPC-1C per 100,000 cells.
Assay [17] shares this target. The experiment in a line: flow cytometry, H520 squamous tumor cells (type reported as not bound), 2 ug NPC-1C per 100,000 cells.
Assay [18] has the same target. The experiment in a line: flow cytometry, PC-3 prostate tumor cells (type reported as not bound), 2 ug NPC-1C per 100,000 cells.
For assay [19] the target is unchanged. In words: flow cytometry, DU145 prostate tumor cells (type reported as not bound), 2 ug NPC-1C per 100,000 cells.
For assay [20] the target is unchanged. In words: flow cytometry, SW756 squamous tumor cells (type reported as not bound), 2 ug NPC-1C per 100,000 cells.
Assay [21] shares this target. The experiment in a line: flow cytometry, HTB-35 squamous tumor cells (type reported as not bound), 2 ug NPC-1C per 100,000 cells.
Assay [22] shares this target. The experiment in a line: flow cytometry, GEO colorectal tumor cells, 2.5 ug NPC-1 per 100,000 cells.
The target is the same in assay [23]. The experiment in a line: flow cytometry, LS174T colorectal tumor cells, 2.5 ug NPC-1 per 100,000 cells.
The target is the same in assay [24]. The experiment in a line: flow cytometry, CFPAC-1 pancreatic tumor cells, 2.5 ug NPC-1 per 100,000 cells.
The target is the same in assay [25]. The experiment in a line: flow cytometry, MCF-7 breast tumor cells (line reported as not bound), 2.5 ug NPC-1 per 100,000 cells.
For assay [26] the target is unchanged. In words: flow cytometry, OVCAR-3 ovarian tumor cells (line reported as not bound), 2.5 ug NPC-1 per 100,000 cells.

Isotype Control (antibody): the % Cell Staining in assay [1] worked out at 0.94%; in assay [2], 0.78%; in [3] it was 0.19%; in assay [4] it was 0.93%; in assay [5] it was 0.44%.

B1: NPC-1C chimeric antibody (antibody, mouse IgG1, kappa, V domains shown)
VH: QVQLKESGPDLVAPSQSLSITCIVSGFSLSKFGVNWVRQPPGKGLEWLGVIWGDGSTSYNSGLISRLSIKENSKSQVFLKLNSLQADDTATYYCVKPGGDYWGHGTSVTVSS
VL: QVVLTQSPVIMSASPGEKVTMTCSASSSISYMYWYQQKPGTSPRWIYDTSKLASGVPARFSGGSGTSYSLTISNMEAGDAAYYCHQRDSYPWTFGGGTNLIKRA
As to B1, the % Cell Staining in assay [6] was 1.3% and 1.09%; in [7] it was 1.41% and 1.34%; in assay [8], 0.24% and 0.85%; in [9], 0.43% and 0.35%; in assay [10] it was 11.6% and 11.2%; in assay [11] it was 0.75% and 0.41%. Further, the % Cell Staining in assay [12] is 1.12% and 2.37%; in assay [13] it was 3.72% and 4.29%; in assay [14] it was 11.2% and 10.6%; in assay [15], 2.26% and 1.44%; in [16], 0.49% and 0.4%; in [17], 1.66% and 0.93%. Also, the % Cell Staining in [18] is 1.34% and 1.52%; in assay [19] it was 0.24% and 0.14%; in [20], 0.75% and 2.14%; in assay [21], 4.83% and 3.85%. In addition, the mfi (mean fluorescence intensity) in [6] was 55 and 34; in assay [7] it was 44 and 64; in assay [8], 184 and 74; in assay [9] it was 33 and 34; in assay [10], 43 and 47; in assay [11], 69 and 31. For the same molecule, the mfi (mean fluorescence intensity) in assay [12] is 97 and 174; in [13], 410 and 399; in assay [14], 16 and 15; in [15], 154 and 67; in [16], 32; in assay [17], 129 and 173. For the same molecule, the mfi (mean fluorescence intensity) is 17 and 28 in assay [18]; 186 and 178 in assay [20]; 97 and 123 in assay [21].

B2: NPC-1 monoclonal antibody (antibody, mouse IgG1, kappa, V domains shown)
VH: B1 VH
VL: B1 VL
For the molecule B2, the % Cell Staining came to 86.9% in assay [22]; 57% in [23]; 54.6% in assay [24]; 0.19% in [25]; 0.19% in [26].
